Source: article PMC4263359, “Vesicular Stomatitis Virus Polymerase's Strong Affinity to Its Template Suggests Exotic Transcription Models” (PLoS Computational Biology, 2014)

Molecular target: T1, VSV L protein (vesicular stomatitis virus (endogenous …, UniProt P03523 1-2109))
T1 construct: also called catalytic unit of the VSV polymerase; polymerase
Assay: co-sedimentation
Details: partners not purified

T1 sequence (P03523 whole entry): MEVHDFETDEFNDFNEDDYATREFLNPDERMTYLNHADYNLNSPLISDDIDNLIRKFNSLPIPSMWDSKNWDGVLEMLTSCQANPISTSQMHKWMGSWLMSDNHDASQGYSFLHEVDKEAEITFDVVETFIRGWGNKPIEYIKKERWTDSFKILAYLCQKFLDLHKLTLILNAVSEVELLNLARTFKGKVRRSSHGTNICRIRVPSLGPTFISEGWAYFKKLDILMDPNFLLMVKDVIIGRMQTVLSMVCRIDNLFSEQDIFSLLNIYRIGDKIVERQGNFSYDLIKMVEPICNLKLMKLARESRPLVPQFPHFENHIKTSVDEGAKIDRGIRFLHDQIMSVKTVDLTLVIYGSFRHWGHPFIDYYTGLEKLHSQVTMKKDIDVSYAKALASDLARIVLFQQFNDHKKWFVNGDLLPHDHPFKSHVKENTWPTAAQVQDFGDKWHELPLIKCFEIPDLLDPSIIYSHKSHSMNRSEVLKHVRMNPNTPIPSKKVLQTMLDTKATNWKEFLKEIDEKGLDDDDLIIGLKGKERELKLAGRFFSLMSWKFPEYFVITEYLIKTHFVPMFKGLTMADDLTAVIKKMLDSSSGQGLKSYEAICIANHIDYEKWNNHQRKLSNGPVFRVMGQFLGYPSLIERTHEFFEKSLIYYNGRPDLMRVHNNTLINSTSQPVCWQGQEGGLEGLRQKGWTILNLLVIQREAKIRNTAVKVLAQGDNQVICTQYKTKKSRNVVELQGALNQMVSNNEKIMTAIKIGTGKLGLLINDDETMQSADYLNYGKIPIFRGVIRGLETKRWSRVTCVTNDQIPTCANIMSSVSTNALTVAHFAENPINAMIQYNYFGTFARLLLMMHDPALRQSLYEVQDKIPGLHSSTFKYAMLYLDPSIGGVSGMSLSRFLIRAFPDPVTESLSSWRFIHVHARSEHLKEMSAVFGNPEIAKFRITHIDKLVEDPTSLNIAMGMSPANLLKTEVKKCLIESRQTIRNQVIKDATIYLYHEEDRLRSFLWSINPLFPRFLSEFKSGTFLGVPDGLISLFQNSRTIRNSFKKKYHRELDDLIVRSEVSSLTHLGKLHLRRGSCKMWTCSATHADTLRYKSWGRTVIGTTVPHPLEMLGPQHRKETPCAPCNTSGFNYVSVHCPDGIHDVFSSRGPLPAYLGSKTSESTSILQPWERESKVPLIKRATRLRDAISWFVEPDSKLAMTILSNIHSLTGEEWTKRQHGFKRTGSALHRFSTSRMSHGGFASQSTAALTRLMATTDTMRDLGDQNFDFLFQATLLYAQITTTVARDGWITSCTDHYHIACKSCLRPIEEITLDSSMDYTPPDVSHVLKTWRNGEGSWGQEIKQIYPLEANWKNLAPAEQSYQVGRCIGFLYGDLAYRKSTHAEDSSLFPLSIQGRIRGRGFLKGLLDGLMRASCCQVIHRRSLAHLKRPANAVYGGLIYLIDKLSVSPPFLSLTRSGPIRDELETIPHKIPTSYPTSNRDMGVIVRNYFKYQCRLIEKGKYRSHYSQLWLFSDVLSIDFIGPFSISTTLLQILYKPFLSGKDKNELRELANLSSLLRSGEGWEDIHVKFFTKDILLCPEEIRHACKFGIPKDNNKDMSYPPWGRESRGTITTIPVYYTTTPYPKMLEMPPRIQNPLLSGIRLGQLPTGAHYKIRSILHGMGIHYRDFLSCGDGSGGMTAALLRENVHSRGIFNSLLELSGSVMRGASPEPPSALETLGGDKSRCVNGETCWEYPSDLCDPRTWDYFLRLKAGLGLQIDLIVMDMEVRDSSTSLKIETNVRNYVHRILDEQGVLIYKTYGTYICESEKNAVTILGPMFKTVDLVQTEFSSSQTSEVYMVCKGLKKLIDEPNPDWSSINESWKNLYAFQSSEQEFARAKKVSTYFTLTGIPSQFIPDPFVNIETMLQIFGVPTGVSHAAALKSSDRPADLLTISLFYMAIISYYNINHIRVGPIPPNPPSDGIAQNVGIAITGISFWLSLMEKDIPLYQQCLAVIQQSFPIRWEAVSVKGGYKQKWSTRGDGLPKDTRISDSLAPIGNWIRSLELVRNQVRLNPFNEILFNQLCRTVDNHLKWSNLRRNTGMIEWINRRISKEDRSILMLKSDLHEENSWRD

B1: full genome template (N-RNA) bound with P and L extracted from detergent-disrupted virions (complex)
chain 1: MSVTVKRIIDNTVIVPKLPANEDPVEYPADYFRKSKEIPLYINTTKSLSDLRGYVYQGLKSGNVSIIHVNSYLYGALKDIRGKLDKDWSSFGINIGKAGDTIGIFDLVSLKALDGVLPDGVSDASRTSADDKWLPLYLLGLYRVGRTQMPEYRKKLMDGLTNQCKMINEQFEPLVPEGRDIFDVWGNDSNYTKIVAAVDMFFHMFKKHECASFRYGTIVSRFKDCAALATFGHLCKITGMSTEDVTTWILNREVADEMVQMMLPGQEIDKADSYMPYLIDFGLSSKSPYSSVKNPAFHFWGQLTALLLRSTRARNARQPDDIEYTSLTTAGLLYAYAVGSSADLAQQFCVGDNKYTPDDSTGGLTTNAPPQGRDVVEWLGWFEDQNRKPTPDMMQYAKRAVMSLQGLREKTIGKYAKSEFDK
chain 2: MDNLTKVREYLKSYSRLDQAVGEIDEIEAQRAEKSNYELFQEDGVEEHTKPSYFQAADDSDTESEPEIEDNQGLYAQDPEAEQVEGFIQGPLDDYADEEVDVVFTSDWKPPELESDEHGKTLRLTSPEGLSGEQKSQWLSTIKAVVQSAKYWNLAECTFEASGEGVIMKERQITPDVYKVTPVMNTHPSQSEAVSDVWSLSKTSMTFQPKKASLQPLTISLDELFSSRGEFISVGGDGRMSHKEAILLGLRYKKLYNQARVKYSL
notes: also called whole genome template; copies: 1250 +
In the case of B1, the Kd is reported as 0.02 nM.
